What was measured:
[1] = system: 4-hydroxyphenylpyruvate dioxygenase (HPPD); assay: Insensitivity parameter (ON × OFF) and trait fitness (ON × OFF × kcat/KM or × kcat); format: biochemical, Z. mays; design: key to ON × OFF / Insensitivity, mesotrione, ON × OFF / Insensitivity, tembotrione, ON × OFF / Insensitivity, topramezone, ON × OFF / Insensitivity, sulcotrione, ON × OFF / Insensitivity, isoxaflutole (DKN), ON × OFF: insensitivity = ON rate ratio × OFF rate ratio (surrogate for KD); conditions: for ON × OFF × kcat, Value / ON × OFF × kcat, Fold vs wt / ON × OFF, fold vs wt / ON × OFF (parameters with tembotrione): Table 5; for ON × OFF × kcat, Fold vs wt / ON × OFF, fold vs wt: fold vs maize wild type HPPD; for ON × OFF (parameters with tembotrione): insensitivity parameter; for Insensitivity, isoxaflutole (DKN), ON × OFF / Insensitivity, isoxaflutole (DKN), Trait fitness: inhibitor diketonitrile form of isoxaflutole (DKN); for Insensitivity, mesotrione, ON × OFF / Insensitivity, mesotrione, Trait Fitness: inhibitor mesotrione; for Insensitivity, sulcotrione, ON × OFF / Insensitivity, sulcotrione, Trait fitness: inhibitor sulcotrione; for Insensitivity, tembotrione, ON × OFF / Insensitivity, tembotrione, Trait fitness: inhibitor tembotrione; for Insensitivity, topramezone, ON × OFF / Insensitivity, topramezone, Trait Fitness: inhibitor topramezone
How it was run: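 Trait fitness combines catalysis and insensitivity as kcat/KM × ON rate ratio × OFF rate ratio. The insensitivity parameter is the product of ON and OFF rate ratios, used in place of KD because the ON rate ratio is inverse.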

[2] = system: 4-hydroxyphenylpyruvate dioxygenase (HPPD); assay: Estimate of kcat from initial rate at saturating hydroxyphenylpyruvate without inhibitor (ON rate ratio assay); format: biochemical, Z. mays
How it was run: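 kcat was estimated from the initial reaction rate with known enzyme level (60 or 120 nM HPPD). Hydroxyphenylpyruvate was at a saturating 100 μM, with no inhibitor present.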

[3] = DKN (diketonitrile form of isoxaflutole)
[4] = Table 7, tembotrione, combinatorial variants
[5] = Table 5, single substitutions in Round 7 variant 9070 (SEQ ID NO:2), estimate from initial rate at saturating hydroxyphenylpyruvate without inhibitor
[6] = Table 7, combinatorial variants

B1: R7-9070: shuffled maize HPPD, Round 7, variant 9070 (SEQ ID NO:2); backbone for saturation mutagenesis (protein)
chain: MGPTPTATAAGAAVAAASAAEQAAFRLVGHRNFVRFNPRSDRFQTLAFHHVELWCADAASAAGRFSFALGVPLAARSDLSTGNSAHASLLLRSGSLSLLFTAPYAHGADAATAALPSFSAAAARRFAADHGLAVRAVALRVADAEDAFRASVAAGARPAFGPVDLGRGFRLAEVELYGDVVLRYVSYPDGAAGEPFLPGFEGVASPGAADYGLSRFDHIVGNVPELAPAAAYMAGFTGFHEFAEFTTEDVGTTESGLNSMALANNSENVLLPLNEPVHGTKRRSQIQTFLDHHGGPGVQHIALASDDVLRTLREMRARSAMGGFEFLPPPLSDYYDGVRRCAGDVLTEAQINECQELGVMVDRDDQGVLLQIFTKPVGDRPTFFLEIIQRIGCMEKDEKGQEYQKGGCGGFGKGNFGQLFKSIEDYEKSLEAKQAAAAATAQGS
modifications: Zea mays variant form created by artificial means.
notes: backbone for saturation mutagenesis
B1 was tested, and the “Insensitivity parameter, ON × OFF” value [1, 3] was 0.24, the “ON × OFF” value ([1]; Megatable 3, shuffled variants) was 0.086 and the “ON × OFF × kcat” value ([1]; Megatable 3, shuffled variants) was 3.45. For the same molecule, the “Insensitivity parameter, ON × OFF” value ([1]; Mesotrione, Table 6) was 0.45, the “Insensitivity parameter, ON × OFF” value ([1]; Sulcotrione) was 0.56 and the “ON × OFF × kcat, Value” ([1]; tembotrione) was 5.25. The “ON × OFF × kcat, Fold vs wt” value ([1]; tembotrione) was 4.90, the “ON × OFF, fold vs wt” value ([1]; tembotrione) was 30.0 and the “ON × OFF (parameters with tembotrione)” value ([1]; tembotrione) was 0.15. The “ON × OFF” value [1, 4] was 0.086, the “ON × OFF × kcat” value [1, 4] was 3.45 and the “Insensitivity parameter, ON × OFF” value ([1]; Tembotrione) was 0.19. For the same molecule, the “Insensitivity parameter, ON × OFF” value ([1]; Topramezon) was 0.26, the “Insensitivity, isoxaflutole (DKN), ON × OFF” value [1] was 0.11 and the “Insensitivity, isoxaflutole (DKN), Trait fitness” value [1] was 3.30. For the same molecule, the “Insensitivity, mesotrione, ON × OFF” value [1] was 0.59, the “Insensitivity, mesotrione, Trait Fitness” value [1] was 18.1 and the “Insensitivity, sulcotrione, ON × OFF” value [1] was 0.38. The “Insensitivity, sulcotrione, Trait fitness” value [1] was 11.8, the “Insensitivity, tembotrione, ON × OFF” value [1] was 0.17 and the “Insensitivity, tembotrione, Trait fitness” value [1] was 5.36. The “Insensitivity, topramezone, ON × OFF” value [1] was 0.13, the “Insensitivity, topramezone, Trait Fitness” value [1] was 3.99 and the “Fitness Fold vs Zm wt” value ([1]; mesotrione) was 7.9. For the same molecule, the “Insensitivity parameter, ON × OFF” value ([1]; mesotrione, Table 2) was 0.56, the “Insensitivity ON × OFF, Fold vs wt” value ([1]; mesotrione, vs maize wild type) was 9.11 and the kcat ([2]; Megatable 3, shuffled variants) was 40 min⁻¹. For the same molecule, the kcat [2, 5] was 34.2 min⁻¹ and the kcat [2, 6] was 40 min⁻¹.

B2: P056028-G-01 (protein)
chain: MGPTPTATAAGAAVAAASAAEQAAFRLVGHRNFVRFNPRSDRFQTLAFHHVELWCADAASAAGRFSFALGVPLAARSDLSTGNSAHASLLLRSGSLSLLFTAPYAHGADAATAALPSFSAAAARRFAADHGLAVRAVALRVADAEDAFRASVAAGARPAFGPVDLGRGFRLAEVELYGDVVLRYVSYPDGAAGEPFLPGFEGVASPGAADLGLNRFDHIVGNVPELAPAAAYMAGFTGFHEFAEFTTEDVGTTESGLNSMALANNSENVLLPLNEPVHGTKRRSQIQTFLDHHGGPGVQHIALASDDVLRTLREMRARSAMGGFEFLPPPLSDYYDGVRKCAGDVLTEAQINECQELGVMVDRDDEGVLLQIFTKPVGDRPTFFLEIIQRIGCMEKDEKGQEYQKGGCGGFGKGNFGQLFKSIEDYEKSLEKKRAAAAATAQGS
modifications: Zea mays variant form created by artificial means.
With B2 the “ON × OFF” value ([1]; Megatable 3, shuffled variants) was 0.238, the “ON × OFF × kcat” value ([1]; Megatable 3, shuffled variants) was 7.65 and the “ON × OFF” value [1, 4] was 0.238. The “ON × OFF × kcat” value [1, 4] was 7.65, the “Insensitivity, isoxaflutole (DKN), ON × OFF” value [1] was 0.32 and the “Insensitivity, isoxaflutole (DKN), Trait fitness” value [1] was 6.55. The “Insensitivity, mesotrione, ON × OFF” value [1] was 0.71, the “Insensitivity, mesotrione, Trait Fitness” value [1] was 14.6 and the “Insensitivity, sulcotrione, ON × OFF” value [1] was 0.89. For the same molecule, the “Insensitivity, sulcotrione, Trait fitness” value [1] was 18.2, the “Insensitivity, tembotrione, ON × OFF” value [1] was 0.36 and the “Insensitivity, tembotrione, Trait fitness” value [1] was 7.32. The “Insensitivity, topramezone, ON × OFF” value [1] was 0.46, the “Insensitivity, topramezone, Trait Fitness” value [1] was 9.31 and the kcat ([2]; Megatable 3, shuffled variants) was 32.2 min⁻¹. For the same molecule, the kcat [2, 6] was 32.2 min⁻¹.

B3: P056028-G-01R (protein)
chain: MGPTPTATAAGAAVAAASAAEQAAFRLVGHRNFVRFNPRSDRFQTLAFHHVELWCADAASAAGRFSFALGVPLAARSDLSTGNSAHASLLLRSGSLSLLFTAPYAHGADAATAALPSFSAAAARRFAADHGLAVRAVALRVADAEDAFRASVAAGARPAFGPVDLGRGFRLAEVELYGDVVLRYVSYPDGAAGEPFLPGFEGVASPGAADLGLNRFDHIVGNVPELAPAAAYMAGFTGFHEFAEFTTEDVGTTESGLNSMALANNSENVLLPLNEPVHGTKRRSQIQTFLDHHGGPGVQHIALASDDVLRTLREMRARSAMGGFEFLPPPLSDYYDGVRKCAGDVLTEAQINECQELGVMVDRDDEGVLLQIFTKPVGDRPTFFLEIIQRIGCREKDEKGQEYQKGGCGGFGKGNFGQLFKSIEDYEKSLEKKRAAAAATAQGS
modifications: Zea mays variant form created by artificial means.
B3 was tested, and the “ON × OFF” value ([1]; Megatable 3, shuffled variants) was 0.201, the “ON × OFF × kcat” value ([1]; Megatable 3, shuffled variants) was 14.24 and the “ON × OFF” value [1, 4] was 0.201. For the same molecule, the “ON × OFF × kcat” value [1, 4] was 14.24, the “Insensitivity, isoxaflutole (DKN), ON × OFF” value [1] was 0.29 and the “Insensitivity, isoxaflutole (DKN), Trait fitness” value [1] was 3.98. For the same molecule, the “Insensitivity, mesotrione, ON × OFF” value [1] was 0.73, the “Insensitivity, mesotrione, Trait Fitness” value [1] was 25.6 and the “Insensitivity, sulcotrione, ON × OFF” value [1] was 0.83. For the same molecule, the “Insensitivity, sulcotrione, Trait fitness” value [1] was 11.5, the “Insensitivity, tembotrione, ON × OFF” value [1] was 0.20 and the “Insensitivity, tembotrione, Trait fitness” value [1] was 7.09. The “Insensitivity, topramezone, ON × OFF” value [1] was 0.43, the “Insensitivity, topramezone, Trait Fitness” value [1] was 5.91 and the kcat ([2]; Megatable 3, shuffled variants) was 70.8 min⁻¹. For the same molecule, the kcat [2, 6] was 70.8 min⁻¹.

B4: P056028-B-02 (protein)
chain: MGPTPTATAAGAAVAAASAAEQAAFRLVGHRNFVRFNPRSDRFQTLAFHHVELWCADAASAAGRFSFALGVPLAARSDLSTGNSAHASLLLRSGSLSLLFTAPYAHGADAATAALPSFSAAAARRFAADHGLAVRAVALRVADAEDAFRASVAAGARPAFGPVDLGRGFRLAEVELYGDVVLRYVSYPDGAAGEPFLPGFEGVASSGAADYGLSRFDHIVGNVPELAPAAAYMAGFTGFHEFAEFTTEDVGTTESGLNSMALANNSENVLLPLNEPVHGTKRRSQIQTFLDHHGGPGVQHIALASDDVLRTLREMRARSAMGGFEFLPPPLSDYYDGVRRCAGDVLTEAQINECQKLGVMVDRDDEGVLLQIFTKPVGDRPTFFLEIIQRIGCMEKDEKGQEYQKGGCGGFGKGNFGQLFKSIEDYERSLEAKQAAAVATAQGS
modifications: Zea mays variant form created by artificial means.
B4 was tested, and the “ON × OFF” value ([1]; Megatable 3, shuffled variants) was 0.375, the “ON × OFF × kcat” value ([1]; Megatable 3, shuffled variants) was 10.58 and the “ON × OFF” value [1, 4] was 0.375. For the same molecule, the “ON × OFF × kcat” value [1, 4] was 10.58, the “Insensitivity, isoxaflutole (DKN), ON × OFF” value [1] was 0.35 and the “Insensitivity, isoxaflutole (DKN), Trait fitness” value [1] was 6.78. For the same molecule, the “Insensitivity, mesotrione, ON × OFF” value [1] was 0.63, the “Insensitivity, mesotrione, Trait Fitness” value [1] was 12.3 and the “Insensitivity, sulcotrione, ON × OFF” value [1] was 0.81. The “Insensitivity, sulcotrione, Trait fitness” value [1] was 15.8, the “Insensitivity, tembotrione, ON × OFF” value [1] was 0.37 and the “Insensitivity, tembotrione, Trait fitness” value [1] was 7.35. The “Insensitivity, topramezone, ON × OFF” value [1] was 0.42, the “Insensitivity, topramezone, Trait Fitness” value [1] was 8.17 and the kcat ([2]; Megatable 3, shuffled variants) was 28.2 min⁻¹. The kcat [2, 6] was 28.2 min⁻¹.

B5: Z. mays wt: maize wild-type HPPD, SEQ ID NO:1 (glycine for proline at position 2) (protein)
chain: MGPTPTAAAAGAAVAAASAAEQAAFRLVGHRNFVRFNPRSDRFHTLAFHHVELWCADAASAAGRFSFGLGAPLAARSDLSTGNSAHASLLLRSGSLSFLFTAPYAHGADAATAALPSFSAAAARRFAADHGLAVRAVALRVADAEDAFRASVAAGARPAFGPVDLGRGFRLAEVELYGDVVLRYVSYPDGAAGEPFLPGFEGVASPGAADYGLSRFDHIVGNVPELAPAAAYFAGFTGFHEFAEFTTEDVGTAESGLNSMVLANNSENVLLPLNEPVHGTKRRSQIQTFLDHHGGPGVQHMALASDDVLRTLREMQARSAMGGFEFMAPPTSDYYDGVRRRAGDVLTEAQIKECQELGVLVDRDDQGVLLQIFTKPVGDRPTLFLEIIQRIGCMEKDEKGQEYQKGGCGGFGKGNFSQLFKSIEDYEKSLEAKQAAAAAAAQGS
modifications: Zea mays
With B5 the “Insensitivity parameter, ON × OFF” value [1, 3] was 0.0096, the “Insensitivity parameter, ON × OFF” value ([1]; Mesotrione, Table 6) was 0.0437 and the “Insensitivity parameter, ON × OFF” value ([1]; Sulcotrione) was 0.0872. The “ON × OFF × kcat, Value” ([1]; tembotrione) was 1.07, the “ON × OFF × kcat, Fold vs wt” value ([1]; tembotrione) was 1.00 and the “ON × OFF, fold vs wt” value ([1]; tembotrione) was 1.00. The “ON × OFF (parameters with tembotrione)” value ([1]; tembotrione) was 0.0051, the “Insensitivity parameter, ON × OFF” value ([1]; Tembotrione) was 0.0051 and the “Insensitivity parameter, ON × OFF” value ([1]; Topramezon) was 0.0154. The “Insensitivity, isoxaflutole (DKN), ON × OFF” value [1] was 0.0005, the “Insensitivity, isoxaflutole (DKN), Trait fitness” value [1] was 0.015 and the “Insensitivity, mesotrione, ON × OFF” value [1] was 0.062. For the same molecule, the “Insensitivity, mesotrione, Trait Fitness” value [1] was 2.1, the “Insensitivity, sulcotrione, ON × OFF” value [1] was 0.042 and the “Insensitivity, sulcotrione, Trait fitness” value [1] was 1.45. For the same molecule, the “Insensitivity, tembotrione, ON × OFF” value [1] was 0.007, the “Insensitivity, tembotrione, Trait fitness” value [1] was 0.26 and the “Insensitivity, topramezone, ON × OFF” value [1] was 0.002. For the same molecule, the “Insensitivity, topramezone, Trait Fitness” value [1] was 0.077, the “Fitness Fold vs Zm wt” value ([1]; mesotrione) was 1 and the “fold less sensitive to mesotrione than soybean HPPD” value ([1]; mesotrione) was 40 fold. The “Insensitivity parameter, ON × OFF” value ([1]; mesotrione, Table 2) was 0.06 and the kcat [2, 5] was 210 min⁻¹.
